Data on one molecule can be found in publication PMC3462793, “Erioflorin Stabilizes the Tumor Suppressor Pdcd4 by Inhibiting Its Interaction with the E3-ligase β-TrCP1” (PLoS ONE, 2012).

The target in the assay is T1, Programmed cell death 4 (Pdcd4), endogenous in HEK293 cells (human (endogenous in HEK293), UniProt Q53EL6 1-469).
T1 sequence (looked up): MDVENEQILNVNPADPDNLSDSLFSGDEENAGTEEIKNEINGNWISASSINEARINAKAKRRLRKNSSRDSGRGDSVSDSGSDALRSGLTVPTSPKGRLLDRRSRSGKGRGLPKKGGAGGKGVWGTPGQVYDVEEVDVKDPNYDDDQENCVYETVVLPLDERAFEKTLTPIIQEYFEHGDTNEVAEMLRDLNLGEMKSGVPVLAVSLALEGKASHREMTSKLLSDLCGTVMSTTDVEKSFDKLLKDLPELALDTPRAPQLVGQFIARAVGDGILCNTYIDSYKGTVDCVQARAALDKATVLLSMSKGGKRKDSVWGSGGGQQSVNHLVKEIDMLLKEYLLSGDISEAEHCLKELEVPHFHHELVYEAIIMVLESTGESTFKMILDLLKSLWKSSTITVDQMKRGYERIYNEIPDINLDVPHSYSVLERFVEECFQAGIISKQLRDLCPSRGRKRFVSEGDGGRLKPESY
The assay can be described thus: cell-based or functional assay.

B1: β-transducin repeat-containing protein 1 (β-TrCP1), overexpressed in HEK293 cells (natural protein, UniProt Q9Y297 1-605, looked up)
chain: MDPAEAVLQEKALKFMCSMPRSLWLGCSSLADSMPSLRCLYNPGTGALTAFQNSSEREDCNNGEPPRKIIPEKNSLRQTYNSCARLCLNQETVCLASTAMKTENCVAKTKLANGTSSMIVPKQRKLSASYEKEKELCVKYFEQWSESDQVEFVEHLISQMCHYQHGHINSYLKPMLQRDFITALPARGLDHIAENILSYLDAKSLCAAELVCKEWYRVTSDGMLWKKLIERMVRTDSLWRGLAERRGWGQYLFKNKPPDGNAPPNSFYRALYPKIIQDIETIESNWRCGRHSLQRIHCRSETSKGVYCLQYDDQKIVSGLRDNTIKIWDKNTLECKRILTGHTGSVLCLQYDERVIITGSSDSTVRVWDVNTGEMLNTLIHHCEAVLHLRFNNGMMVTCSKDRSIAVWDMASPTDITLRRVLVGHRAAVNVVDFDDKYIVSASGDRTIKVWNTSTCEFVRTLNGHKRGIACLQYRDRLVVSGSSDNTIRLWDIECGACLRVLEGHEELVRCIRFDNKRIVSGAYDGKIKVWDLVAALDPRAPAGTLCLRTLVEHSGRVFRLQFDEFQIVSSSHDDTILIWDFLNDPAAQAEPPRSPSRTYTYISR
As for B1, the “endogenous Pdcd4 protein level (western densitometry, relative to the DMSO control) in HEK293 cells treated 8 h with TPA (10 nM) and erioflorin (0.625–5 µM)” value is 121 % of DMSO control.
